From publication PMC10420310, “The Complex Proteolipidic Behavior of the SARS-CoV-2 Envelope Protein Channel: Weak Selectivity and Heterogeneous Oligomerization” (International Journal of Molecular Sciences, 2023)
Where “and” joins values, the source holds several entries; their conditions need not be identical. Identical values can stand only once.

What was measured:
[1] = molecular target: truncated SARS-2 E protein corresponding to residues 8–65 with N-terminal 6-His tag (6H-E-TR) (SARS-CoV-2) (UniProt P0DTC4); experiment: AUC; sedimentation velocity, His-E-TR at DPR 70 in 5 mM C14SB micelles, 50 mM Tris-HCl pH 7.3, 100 mM NaCl, 29.4% D2O, 20 °C, 50,000 rpm
[2] = molecular target: truncated SARS-2 E protein corresponding to residues 8–65 with N-terminal 6-His tag (6H-E-TR) (SARS-CoV-2) (UniProt P0DTC4); experiment: AUC; sedimentation velocity, His-E-TR at DPR 25 in 5 mM C14SB micelles, 50 mM Tris-HCl pH 7.3, 100 mM NaCl, 29.4% D2O, 20 °C, 50,000 rpm
[3] = molecular target: full-length SARS-2 E protein (E-FL) (SARS-CoV-2) (UniProt P0DTC4); experiment: AUC; sedimentation velocity, E-FL at DPR 125 in 5 mM C14SB micelles, 50 mM Tris-HCl pH 7.3, 100 mM NaCl, 29.4% D2O, 20 °C, 50,000 rpm

Row | Substance | stoichiometry N [1] | stoichiometry N [2] | stoichiometry N [3]
1 | truncated SARS-2 E protein corresponding to residues 8–65 with N-terminal 6-His tag (6H-E-TR) (from UniProt P0DTC4 8-65) (domain or fragment) | 2.56 | 3 | 
2 | full-length SARS-2 E protein (E-FL) (from UniProt P0DTC4 1-75) (natural protein) |  |  | 2 and 4.6
